Reference: patent US8440629B2
Residue numbers refer to the chain shown, from its start. Names and notes keep the numbering of the source. Like-named read-outs stand apart in the source and are kept apart here. Positions of bridges follow the written chain, without caps; N, C: chain ends. No end group written: not given here.

Tests used:
[1] = target: LRP1 CR3-5 (human); assay: solid-phase binding assay, immobilised CR protein, anti-RAP detection
[2] = target: LRP2 CR89 (human) (UniProt P98164); assay: as above
[3] = target: LRP2 CR3536 (human) (UniProt P98164); assay: as above
[4] = target: LRP1 CR3-5 (human); assay: as above; remark: listed apart in the source
[5] = target: LRP2 CR34-36 (human) (UniProt P98164); assay: as above
[6] = target: MAT CR23 (human); assay: as above
[7] = target: LRP1 CR3-5 (human); assay: phage panning of a RAP library randomised at 256 and 270 on immobilised LRP1 CR3-5
[8] = target: LRP2 CR89 R1088D (human) (UniProt P98164); assay: solid-phase binding assay, immobilised mutant CR protein
[9] = target: LRP2 CR89 (human) (UniProt P98164); assay: solid-phase binding assay, immobilised CR protein, anti-RAP detection; remark: listed apart in the source
[10] = target: MAT CR23 (human); assay: solid-phase binding assay (FIG. 9); target not given, MatRAP1 was selected on MAT CR23
[11] = target: 8D6 CR12 (human); assay: solid-phase binding assay (FIG. 10)
[12] = target: recombinant human LRP1 ligand binding cluster II (human); assay: solid-phase binding assay, immobilised receptor, streptavidin-HRP detection, EDTA-corrected
[13] = target: recombinant human LRP1 ligand binding cluster II (human); assay: solid-phase binding assay, immobilised receptor
[14] = target: recombinant human LRP1 ligand binding cluster II (human); assay: competition ELISA, inhibitor pre-incubated with immobilised LRP1 cluster II before washing; competitor ligand RAP d3
[15] = target: recombinant human LRP1 ligand binding cluster II (human); assay: competition ELISA on immobilised LRP1 cluster II; competitor ligand RAP d3 (2 nM)

Chain of MAT CR23 (human) (Q9Y5Y6 whole entry): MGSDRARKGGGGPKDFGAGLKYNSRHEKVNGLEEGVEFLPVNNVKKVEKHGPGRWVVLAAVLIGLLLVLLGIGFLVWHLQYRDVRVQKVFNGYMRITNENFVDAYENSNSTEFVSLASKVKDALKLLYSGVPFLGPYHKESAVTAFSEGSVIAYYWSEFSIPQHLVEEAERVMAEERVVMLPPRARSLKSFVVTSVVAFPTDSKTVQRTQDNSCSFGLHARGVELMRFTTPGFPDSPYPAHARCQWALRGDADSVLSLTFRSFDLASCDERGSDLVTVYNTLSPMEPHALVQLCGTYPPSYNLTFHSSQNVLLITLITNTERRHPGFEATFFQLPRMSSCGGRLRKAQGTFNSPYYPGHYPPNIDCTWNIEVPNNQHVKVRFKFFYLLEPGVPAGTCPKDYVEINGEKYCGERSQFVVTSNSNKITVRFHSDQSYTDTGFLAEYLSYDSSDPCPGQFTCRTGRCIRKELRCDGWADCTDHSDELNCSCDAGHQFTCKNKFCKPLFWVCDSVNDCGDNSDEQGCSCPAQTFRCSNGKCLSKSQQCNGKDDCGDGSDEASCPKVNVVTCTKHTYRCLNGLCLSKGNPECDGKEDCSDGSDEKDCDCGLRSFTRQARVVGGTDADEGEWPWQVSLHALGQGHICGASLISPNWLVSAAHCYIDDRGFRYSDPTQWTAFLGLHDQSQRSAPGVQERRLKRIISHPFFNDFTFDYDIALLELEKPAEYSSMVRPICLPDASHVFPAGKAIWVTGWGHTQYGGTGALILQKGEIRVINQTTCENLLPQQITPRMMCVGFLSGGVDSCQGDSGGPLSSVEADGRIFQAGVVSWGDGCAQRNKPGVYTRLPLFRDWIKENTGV

B1: RAP d3 (ligand)
chain: LDRLRRVSHQGYSTEAEFEEPRVIDLWDLAQSANLTDKELEAFREELKHFEAKIEKHNHYQKQLEIAHEKLRHAESVGDGERVSRSREKHALLEGRTKELGYTVKKHLQDLSGRISRAR
Kd [1]: 16 nM | Kd [2]: > 300 nM | binding as percent of that for LRP1 CR3-5 [3]: < 5% | Kd [4]: 11 nM | binding as percent of that for LRP1 CR3-5 [5]: < 5% | binding as percent of that for LRP1 CR3-5 [6]: < 5%

B2: wild-type RAP displayed on M13 phage (ligand)
chain: YSREKNQPKPSPKRESGEEFRMEKLNQLWEKAQRLHLPPVRLAELHADLKIQERDELAWKKLKLDGLDEDGEKEARLIRNLNVILAKYGLDGKKDARQVTSNSLSGTQEDGLDDPRLEKLWHKAKTSGKFSGEELDKLWREFLHHKEKVHEYNVLLETLSRTEEIHENVISPSDLSDIKGSVLHSRHTELKEKLRSINQGLDRLRRVSHQGYSTEAEFEEPRVIDLWDLAQSANLTDKELEAFREELKHFEAKIEKHNHYQKQLEIAHEKLRHAESVGDGERVSRSREKHALLEGRTKELGYTVKKHLQDLSGRISRARAEAETG
fold enrichment after one round of panning [7]: 7 fold

B3: MegaRAP1 d3 (ligand)
chain: B1 chain with S13T, E17K, H49Y, E51K, K56A, K70E
fold loss of affinity relative to LRP2 CR89 [8]: 2 fold | Kd [9]: 38 nM

B4: MegaRAP1 d3 E270K (ligand)
chain: B1 chain with S13T, E17K, H49Y, E51K, K56A
Kd [9]: 8 nM | Kd [1]: 142 nM

B5: MegaRAP1 d3 double revertant K251E, E270K (ligand)
chain: B1 chain with S13T, E17K, H49Y, K56A
fold difference in affinity against the single-site E270K revertant [9]: 20 fold

B6: MegaRAP1 d3 double revertant A256K, E270K (ligand)
chain: B1 chain with S13T, E17K, H49Y, E51K
fold loss of affinity against the E270K single-site revertant [9]: 2 fold | fold improvement in affinity against the E270K single-site revertant [1]: 30 fold

B7: RAP d3 E251K, K256A, K270E (ligand)
chain: B1 chain with E51K, K56A, K70E
Kd [2]: 114 nM

B8: MatRAP1 N-42 (ligand)
chain: FREELKHFGAKIERHNHYQKQLEIAHEWLRHAESVGDGERVSRSREKHALLEGRTKELGYTVKKHLQDLSGRISRAR
fold increase in affinity over the full-length d3 variant [10]: 3 fold

B9: MatRAP1 N-42 without the C-terminal linker and affinity tag (ligand)
chain: B8 chain
fold increase in binding affinity over MatRAP1 N-42 [10]: 2 fold | fold increase in binding affinity over full-length MatRAP1 d3 [10]: 6 fold

B10: MatRAP1 truncated variant, amino acids 243-313 (ligand)
chain: FREELKHFGAKIERHNHYQKQLEIAHEWLRHAESVGDGERVSRSREKHALLEGRTKELGYTVKKHLQDLSG
fold increase in binding affinity over MatRAP1 N-42 [10]: 4 fold | fold increase in binding affinity over full-length MatRAP1 d3 [10]: 12 fold

B11: truncated 320RAP1, amino acids 243-313 (ligand)
chain: B10 chain with G9E, R14S, W28S, L29M, D37Y, V41M, K63T, K64M
fold improvement in affinity over the full-length variant [11]: 3.5 fold

B12: tag-free RAP d3 peptide linked to maleimide-PEO2-biotin (ligand)
chain: LDRLRRVSHQGYSTEAEFEEPRVIDLWDLAQSANLTDKELEAFREELKHFEAKIEKHNHYQKQLEIAHEKLRHAESVGDGERVSRSREKHALLEGRTKELGYTVKKHLQDLSGRISRARC
modifications: maleimide-PEO2-biotin on the unique C-terminal cysteine
Kd [12]: 8 nM

B13: mRAP-8c (peptide)
peptide: CGKHFEAKIEKHNHYQKQLEIAHEKLRHAESVGDGERVSRSREKHALLEGRTKELGYTVKKHLQDGC
modifications: disulfide 1-67
Kd [13]: 4 to 6 nM

B14: mRAP-14c (peptide)
peptide: CEAKIEKHNHYQKQLEIAHEKLRHAESVGDGERVSRSREKHALLEGRTKELGYTVKKHGC
modifications: disulfide 1-60
Kd [13]: 21 nM

B15: Heptide (peptide)
peptide: CGKHFEAKIEKHNHYQKQLEIAHEKLRHAESVGDAERVSRSREKHALLEGRTKELGYTVKKHLQDACG
modifications: disulfide 1-67
Kd [13]: 3.5 nM

B16: Human RAP (ligand)
chain: YSREKNQPKPSPKRESGEEFRMEKLNQLWEKAQRLHLPPVRLAELHADLKIQERDELAWKKLKLDGLDEDGEKEARLIRNLNVILAKYGLDGKKDARQVTSNSLSGTQEDGLDDPRLEKLWHKAKTSGKFSGEELDKLWREFLHHKEKVHEYNVLLETLSRTEEIHENVISPSDLSDIKGSVLHSRHTELKEKLRSINQGLDRLRRVSHQGYSTEAEFEEPRVIDLWDLAQSANLTDKELEAFREELKHFEAKIEKHNHYQKQLEIAHEKLRHAESVGDGERVSRSREKHALLEGRTKELGYTVKKHLQDLSGRISRARHNEL
EC50 [14]: 0.3 nM | EC50 [15]: 0.5 nM | fold better EC50 than monomeric mRAPc peptide [15]: 64 fold
